Among the data in CN115353562A are Kd and OD450 values, retold here.

Assay [1] deals with H5N1 HA蛋白(BIOHJSW，货号orb-EHJ075488) (H5N1 avian influenza virus).
The target of a further assay is H1 HA. In words: indirect ELISA, coated HA 5 μg/mL, hybridoma supernatant. (In general: An ELISA detects its analyte on a solid surface through an enzyme-linked reagent.)
The target in the next assay is H3 HA. Described as above.
The target in assay [2] is H5N1 HA蛋白(BIOHJSW，货号orb-EHJ075488) (H5N1 avian influenza virus). Described as above.

One may read the Kd as the free concentration of one partner at which half of the binding sites on the other are occupied at equilibrium, for simple one-to-one binding.

B1: H5-3F5单克隆抗体 (antibody, V domains shown)
VH: EVQLVESGGGLVQPGGSLRLSCAASGFSLSEAVSGWVRQAPGKGLEWVGVCNNRIPFYLTWCKLFRFTISKDNSKNTLYLQMNSLRAEDTAVYYCARQRSYCNFQPHPNGWGQGTLVTVSS
VL: AYQMTQSPSSVSASVGDRVTITCGQNMMWIPAWLWYQQKPGKAPKLLIYETNGEHYGVPSRFSGSGSGTDFTLTISSLQPEDFATYYCMMMNARKSLQATKFGGGTKVEIK
B1: the Kd in assay [1] was 407 pM. The OD450 with H1 HA came out at 0.231 OD450; in the assay with H3 HA, 0.412 OD450; in assay [2] it was 2.62 OD450.
